Data from patent US20150359847A1, “METHOD AND COMPOSITION FOR CONFERRING NEUROPROTECTION” (BLOOD SYSTEMS RESEARCH INSTITUTE, priority 2014, published 2015).

Tests used:
[1] = test system: mouse model of controlled cortical impact (CCI); assay: Context-dependent fear discrimination in CCI TBI mice (Example 1); format: in vivo; conditions: TIMP3 60 μg/kg IV x3; task day 2 (day 16)
Source text: (§1) The mouse controlled cortical impact (CCI) injury model was used as previously described. In brief, mice were anesthetized with 5% isoflurane and 1:1 O2:N2 mixture. Animals were mounted on a stereotaxic frame and were secured by ear bars and an incisor bar. Anesthesia was maintained with 2.0% isoflurane and 1:1 O2:N2 mixture. A 5-mm-diameter craniotomy was made midway between bregma and lambda on the right side, with the medial edge of the craniotomy 1 mm lateral to midline. Injury was produced using a magnetic impactor mounted at an angle of 110° from the vertical plane. A single impact at a velocity of 4+/−0.2 m/s was used inflict a moderate to severe injury (1.2-1.3 mm impact depth). After injury, the incision was closed. Sham animals underwent identical surgeries except for impact injury. Core body temperature was monitored using a rectal thermometer and maintained at 36.8° C.-37.2° C. with a heating pad throughout the procedure. For treatments, TIMP3 (60.0 μg/kg) or vehicle control (PBS) administration was performed at 2, 24, and 48 hrs after injury via tail vein injections in a total volume of 125 μl. […]
Contextual discrimination was assessed in a manner similar to prior studies conducted by the inventors and others. […] Comparing the time spent freezing in each chamber during training assessed discrimination of the two contexts.

[2] = test system: NeuN+ve hilar neurons of the dentate gyrus; assay: NeuN staining of hilar neurons of the dentate gyrus 7 days post-TBI; format: in vivo, mouse
Source text: as §1, with “μl. Animal research was performed with approval of the Institutional Animal Care and Use Committee at ISIS Services LLC (San Carlos, Calif., USA).” for “μl.”

[3] = test system: DCX+ve neurons in the subgranule zone of the dentate gyrus; conditions: 7 days post-TBI
Source text: as §1, with “μl. Animal research was performed with approval of the Institutional Animal Care and Use Committee at ISIS Services LLC (San Carlos, Calif., USA).” for “μl.”

[4] = test system: phospho-Akt (Ser473) in hippocampal homogenates; assay: Hippocampal phospho-Akt western blot 3 days post-TBI; format: in vivo, mouse
Source text: as §1, with “Sham animals underwent identical surgeries except for impact injury.” left out, “procedure.” for “procedure. For treatments, TIMP3 (60.0 μg/kg) or vehicle control (PBS) administration was performed at 2, 24, and 48 hrs after injury via tail vein injections in a total volume of 125 μl.”
Cell lysates for western blotting were prepared with RIPA buffer (Cat#89900. Thermofisher Scientific, Rockford, Ill.) supplemented with phosphatase inhibitor cocktail 2 (Cat# P5726. Sigma, St Louis, Mo.), phosphatase inhibitor cocktail 3 (Cat# P0044. Sigma, St Louis, Mo.) and complete protease inhibitor (Cat#1862209. Thermofisher Scientific, Rockford, Ill.). […] Protein content was quantified with a Pierce BCA protein assay kit per manufacturer's instructions (Cat#23225. Thermofisher Scientific, Rockford, Ill.). […]

B1: TIMP3: Recombinant tissue inhibitor of matrix metalloproteinase-3, a soluble protein released by MSCs, obtained from Amgen Inc. (protein)
chain: CTCSPSHPQDAFCNSDIVIRAKVVGKKLVKEGPFGTLVYTIKQMKMYRGFTKMPHVQYIHTEASESLCGLKLEVNKYQYLLTGRVYDGKMYTGLCNFVERWDQLTLSQRKGLNYRYHLGCNCKIKSCYYLPCFVTSKNECLWTDMLSNFGYPGYQSKHYACIRQKGGYCSWYRGWAPPDKSIINATDP
B1 was tested, and the “discrimination between shock and safe contexts” value [1] was “discriminated between the environments following training”, the “NeuN staining, contralateral side” value [2] was “no significant differences on the contralateral side” and the “NeuN+ve neurons in the hilus, ipsilateral” value ([2]; IV TIMP3 vs TBI) was “significantly attenuated the loss of NeuN+ve cells”. For the same molecule, the “DCX staining, contralateral side” value [3] was “no significant differences on the contralateral side”, the “DCX+ve neurons, ipsilateral” value ([3]; IV TIMP3 vs TBI) was “significantly attenuated” and the “phospho-Akt (Ser473) in ipsilateral hippocampal homogenates” value ([4]; TIMP3 60 μg/kg IV x3, day 3, 1 hr after last injection, vs TBI alone) was “significantly elevates”. For the same molecule, the “Phospho-Akt (Ser473) in contralateral hippocampal homogenates” value ([4]; day 3) was “No differences were observed”.
